US12559749B2, “Methods of rescuing stop codons via genetic reassignment with ACE-tRNA” (UNIVERSITY OF IOWA RESEARCH FOUNDATION, priority 2017, dated 2026)

How the values were obtained:
NanoLuc-TGA, TAA or TAG = assay type: cell-based, human; settings: transiently transfected HEK293 cells; listed as Glychr19.t2
[1] = tested on: native stop codons (TAA, TAG, TGA), 3′UTR ribosome density; test: Ribosome footprint profiling of transcriptome-wide 3′UTRs, HEK293 cells; assay type: cell-based, human
From the text: The question was raised whether ACE-tRNAs that show efficacious suppression of premature stop codons may also induce global readthrough of native stop codons. To address this potential “off target” suppression, a transcriptome-wide quantitative profile of actively engaged ribosomes on all cellular transcripts was obtained by generating libraries of ribosome footprints from HEK293 cells expressing exogenous ACE-tRNAs or a control mock plasmid (puc57GG). Streptomycin was removed from the growth media to prevent readthrough artifacts. For comparison, the ribosome footprint library was also generated from cells in the presence or absence of G418 (150 μM, 48 h). […] Only transcripts with a minimum threshold of 5 RPKM in the coding sequence and 0.5 RPKM in the 3′UTR in two replicate libraries were included for the quantitation comparison (254 transcripts in G418 and 495-748 transcripts in ACE-tRNAs). […] ACE-tRNAs examined here had no detectable change of 3′UTR ribosome density with the exception of ACE-tRNA Gln-UAA and Arg-UGA which induced approximately a 2-fold increase in 3′UTR ribosome density for the cognate stop codon complimentary to the ACE-tRNA anticodon. Understanding the biological significance of 2-fold readthrough of protein stops will require further study, but this effect is substantially lower compared to the 100- to 1000-fold suppression of PTC for the same ACE-tRNA.
Multiple in-frame stop codons are frequently found at the end of genes 37-39 and may cause a minor difference in overall 3′UTR ribosome density for ACE-tRNA and G418 treatment. Ribosome occupancy was examined at each nucleotide in the 3′UTR within a 60 nt region downstream of the stop codons. […] Reads were normalized per total million-mapped reads, compared against control cells, and reported as a log 2-fold change as in panel A. More than 5,200 transcripts were mapped to at least 1 footprint in the region of interest. […] Taken together, the ribosome profiling data argue that efficiency of native stop codon suppression by ACE-tRNAs is generally low, and markedly less than the level of PTC suppression.
Ribosome Footprint Profiling Library preparation. HEK293 cells transiently transfected with ACE-tRNAs and control plasmid (puc57GG) were grown in standard grown media in the absence of Pen-Strep for 48 h. Libraries were prepared as described^55, with a few modifications. Briefly, cells were rapidly cooled by addition of ice-cold PBS, lysed in lysis buffer (20 mM Tris-HCl/pH7.4, 150 mM NaCl, 5 mM MgCl2, 1 mM DTT, 1% (v/v) Triton X-100, and 25 U ml^−1 Turbo DNase I) for 10 min on ice, and triturated with ten times through a 26-G needle. […]

B1: Glychr19.trna2: top performing glycine ACE-tRNA UGA, SEQ ID NO: 53 (nucleic acid)
chain: GCGUUGGUGGUAUAGUGGUUAGCAUAGCUGCCUUCAAAGCAGUUGACCCGGGUUCGAUUCCCGGCCAACGCA
modifications: chemistry not given here
NanoLuc-TGA, TAA or TAG
  stop codon selectivity (UGA over UAA and UAG): selectively suppresses the UGA stop codon
[1]; discussion of profiling data
  readthrough of native stop codons / effect on global translation termination: no significant effect on global translation termination
[1]; per nucleotide, -35 to +65 nt
  ribosome occupancy in the early region of 3′UTR downstream of stop codons: no observable change of ribosome occupancy
